This is an account of results in the RNAGym collection of RNA variant scans (doi:10.7554/elife.90254).

First the molecules themselves.
B1: OR4K15 (parent)
chain: GUUAACGGUCAUAGGCCAUGGAAACUAGGAGCACCAUUUCGCUGCCAGUGAAGAAAUGAACAAAGAAAAUCUGGGCCAGGCAGGCAUCAAAAGAAAUAGUCUUGCGCUCAACCAGAAAGUCUGUAAUCAUUUUAAGGGUA

The data set covers variants of B1. Description: self-cleavage, relative activity (ratio to wild type); higher = more cleavage; in vitro, sequencing; the parent is a self-cleaving ribozyme.
On to GUUAACGGUCAUAGGCCAUGGAAACUAGGAGCACCAUUUCGCAGCCAGUGAAGAAAUGAACAAAGAAAAUCUGGGCCAGGCAGGCAACAAAAGAAAUAGUCUUGCGCUCAACCAGAAAGUCUGUAAUCAUUUUAAGGGUA, for which the self-cleavage was found to be 1.94.

GUUAACGGUCAUAGGCCAUGGAAACUAGGAGCACCAUUUCGCUGCCAGUGAAGAAAUGAACAAAGAAGAUAUGGGCCAGGCAGGCAUCAAAAGAAAUAGUCUUGCGCUCAACCAGAAAGUCUGUAAUCAUUUUAAGGGUA: the self-cleavage is 0.6.

GUUAACGGUCAUAGGCCAUGGAAACCAGGAGCACCAUUUCGCUACCAGUGAAGAAAUGAACAAAGAAAAUCUGGGCCAGGCAGGCAUCAAAAGAAAUAGUCUUGCGCUCAACCAGAAAGUCUGUAAUCAUUUUAAGGGUA: the self-cleavage stood at 1.07.

Consider GUUAACGGUCAUAGGCCAUGGAAACUAGGAGCACCAAUUCGCUGCCAGUGAGGAAAUGAACAAAGAAAAUCUGGGCCAGGCAGGCAUCAAAAGAAAUAGUCUUGCGCUCAACCAGAAAGUCUGUAAUCAUUUUAAGGGUA, for which the self-cleavage was 2.37.

For GUUAACGAUCAUAGGCCAUGGAAACUAGGAGCACCAUUUCGCUGCCAGUGAAGAGAUGAACAAAGAAAAUCUGGGCCAGGCAGGCAUCAAAAGAAAUAGUCUUGCGCUCAACCAGAAAGUCUGUAAUCAUUUUAAGGGUA, the self-cleavage stood at 2.14.

Turning to GUCAACGGUCAUAGGCCAUGGAAACUAGGAGCACCAUUUCGCUGCCAGUGAAGAAAUGAACAAAGAAAAUCUGGGCCAGGCAGGCAUCAAAAGAAAUAGUCAUGCGCUCAACCAGAAAGUCUGUAAUCAUUUUAAGGGUA, the self-cleavage was determined as 0.38.

On to GUUAACGGUCAUAGGGCAUGGAAACUAGGAGCACCAUUUCGCUGCCAGCGAAGAAAUGAACAAAGAAAAUCUGGGCCAGGCAGGCAUCAAAAGAAAUAGUCUUGCGCUCAACCAGAAAGUCUGUAAUCAUUUUAAGGGUA, for which the self-cleavage is 0.92.

For the variant GUUAACGGUCAUAGGCCAUGGAACCUAGGAGCACCAUUUCGCUGCCAGUGAAGAAAUGAACAAAGAAAAUCUGGGCCAGGCAGGCAUCAGAAGAAAUAGUCUUGCGCUCAACCAGAAAGUCUGUAAUCAUUUUAAGGGUA, the self-cleavage is 0.69.

For the variant GUUAACGGUCAUAGGCCAUGGAAACUAGGAGCACCAUUUCGCUGCCAGUGAAGAAAUGUACAAAGAAAAUCUGGGCCAGGCAGGCAUCAAAAGAAAUAGUCUUGCGCUCAACCAGAAAGUCUGUAAUCAUUUUAAGGGUG, the self-cleavage is 2.05.

Turning to GUUAACGGUCAUAGGCCAUGGAAACUAGGAGCACCAUUCCGCUGCCAGUGAAGAAAUGAACAAAGAAAAUCUGGGCCAGGCAGGCAUCAAAAGAAAUAGUCUUGCGCUCUACCAGAAAGUCUGUAAUCAUUUUAAGGGUA, the self-cleavage amounted to 1.06.

For the variant GUUAACGGUCAUAGGCCAUGGAAACUAGGAGCACCAUUUCGCUGCCAGUGGAGAAAUGAACAAAGGAAAUCUGGGCCAGGCAGGCAUCAAAAGAAAUAGUCUUGCGCUCAACCAGAAAGUCUGUAAUCAUUUUAAGGGUA, the self-cleavage is 1.5.

Consider GUUAACGGUCAUAGGCCAUGGAAACUAGGAGCACCAUUUCGCUGCCAGUGAAGAAAUGAACAAAGAAAAUCCGGGCCAGGCAGGCAUCAAAAGAAAUAGUCUUGCGCCCAACCAGAAAGUCUGUAAUCAUUUUAAGGGUA, for which the self-cleavage was found to be 0.01.

For the variant GUUAACGGUCAUAGGCCUUGGAAACUAGGAGCACCAUUUCGCUGCCAGUGAAGAAAUGAACAAAGAGAAUCUGGGCCAGGCAGGCAUCAAAAGAAAUAGUCUUGCGCUCAACCAGAAAGUCUGUAAUCAUUUUAAGGGUA, the self-cleavage is 1.53.

For GUUAACGGUCAUAGGCCAUGGAAACUAGGAGCACCAUUUCGCUGCCAGUGAAGAAAUGAACAAAGAAAAUCUGGGCCAGGCAGGCAUCAUAAGAAAUUGUCUUGCGCUCAACCAGAAAGUCUGUAAUCAUUUUAAGGGUA, the self-cleavage was determined as 2.21.

On to GUUAACGGUCAUAGGCCAUGGAAACUAGGAGCACCAUUUCGCUGCCAGUGAAGAAAUGAACAAAGAGAAUCUGGGCCAGGCAGGCAUCAAAAGAAAUAGUCUUGCGCUCAACCAGAAAGUCGGUAAUCAUUUUAAGGGUA, for which the self-cleavage came to 2.16.

Take GUUAACGGUCAUAGGCCCUGGAAACUAGGAGCACCAUUUCGCUGCCAGUGAAGAAAUGAACAAAGAAAAUUUGGGCCAGGCAGGCAUCAAAAGAAAUAGUCUUGCGCUCAACCAGAAAGUCUGUAAUCAUUUUAAGGGUA: the self-cleavage stood at 0.35.

For the variant GUUAACGGUCAUAGGCCAUGGAAACUAGGAGCACCAUUUCGCUGCCAGUGAAGAAAUGAACAAAGAAAAUCUGGGCCAGGCAGGCAUCAAAAGAAAUAGUCUUGCGCUCAACCAGAAAGUAUGUAAUCAUUAUAAGGGUA, the self-cleavage was 1.42.

For the variant GUUAACGGUCAUGGGCCAUGGAAACUAGGAGCACCAUUUCACUGCCAGUGAAGAAAUGAACAAAGAAAAUCUGGGCCAGGCAGGCAUCAAAAGAAAUAGUCUUGCGCUCAACCAGAAAGUCUGUAAUCAUUUUAAGGGUA, the self-cleavage was 0.97.

In the case of GUUAACGGUCAUAGGCCAUGGAAACUAGGAGCACCAUUUCGCUGCCAGUGAAGAAAUGAACAAAGAAAAUCUGGGACAGGCAGGCAUCAGAAGAAAUAGUCUUGCGCUCAACCAGAAAGUCUGUAAUCAUUUUAAGGGUA, the self-cleavage came out at 0.14.

Turning to GUUAACGGUCAUAGGCCAUGGAAGCUAGGAGCUCCAUUUCGCUGCCAGUGAAGAAAUGAACAAAGAAAAUCUGGGCCAGGCAGGCAUCAAAAGAAAUAGUCUUGCGCUCAACCAGAAAGUCUGUAAUCAUUUUAAGGGUA, the self-cleavage worked out at 1.73.

In the case of GUUACCGGUCAUAGGCUAUGGAAACUAGGAGCACCAUUUCGCUGCCAGUGAAGAAAUGAACAAAGAAAAUCUGGGCCAGGCAGGCAUCAAAAGAAAUAGUCUUGCGCUCAACCAGAAAGUCUGUAAUCAUUUUAAGGGUA, the self-cleavage was determined as 0.39.

Turning to GUUAACGGUCAUAGGCCAUGGAAACUAGGAGCACCACUUCGCUGCCAGUGAAGAAAUGAACAAAGAAAAUCUGGGCCAGGCAGGCAUCAAAAGAAAUAGACUUGCGCUCAACCAGAAAGUCUGUAAUCAUUUUAAGGGUA, the self-cleavage stood at 0.52.

Consider GCUAACGGUCAUAGGCCAUGGAAACUAGGAGCACCAUUUCGCUGCCAGUGAAGAAAUGAACAAAGAAAAUCUGGGCCAGGCAGGCAUCAAAAGAACUAGUCUUGCGCUCAACCAGAAAGUCUGUAAUCAUUUUAAGGGUA, for which the self-cleavage stood at 1.85.

Regarding GUUAACGGUCAUAGGCCAUGGAAACUAGGAGCACCAUUUCGCUGCCAGUGAAGAAAUGAACAAAGAAAAUCUGGGCCAGGCAGGCAUCAAAAGAAAUAGUCUUGCGCUCAACCAGAAAGUCUGCAAUCACUUUAAGGGUA, the self-cleavage came out at 0.57.

Turning to GUUAACGGUCAUAGGCCAUGGAAACUAGGAGCACCAUUUCGCUGCCAGUGAAGAAAUGAACAAAGAAAAUCUGGGCCAGGCAGGCAUCAAAGGAAAUAGUCUUGCGCUCAACCAGAAAGUCCGUAAUCAUUUUAAGGGUA, the self-cleavage was 1.19.

With GUUAACGGUCACAGGCCAUGGAAACUAGGAGCACCAUUUCGCUGCCAGUGAAGAAAUGAACAAAGAAAAUCUGGGCCAGGCAGGCAUCAAAAGAAAUAGUCUUGCGCUCAACCAGAAAGUCUGUAAUCACUUUAAGGGUA, the self-cleavage was determined as 0.95.

For the variant GUUAACGGUCAUAGACCAUGGAAACUAGGAGCACCAUUUCGCUGCCAGUGAAGAAAUGAACAAAGAAAAACUGGGCCAGGCAGGCAUCAAAAGAAAUAGUCUUGCGCUCAACCAGAAAGUCUGUAAUCAUUUUAAGGGUA, the self-cleavage worked out at 0.96.

Take GUUAACGGUCAUAGGCCAUGGAAACUAGGAGCACCAUUUCGCUGCCAGUGAAGAAAUGAACAAAGAAAAUCUGGGCCAGGCAGGCAUCAAAAGGGAUAGUCUUGCGCUCAACCAGAAAGUCUGUAAUCAUUUUAAGGGUA: the self-cleavage is 1.9.

Regarding GUUAACGGUCAUAGGCCAUGGAAACUAGGAGCUCCAUUUCGCUGCCAGUGAAGAAAUGAACAAAGAAAAUCUGGGCCAGGCAGGCAUCAGAAGAAAUAGUCUUGCGCUCAACCAGAAAGUCUGUAAUCAUUUUAAGGGUA, the self-cleavage was 1.06.

Turning to GUUAACGGUCAUAGGCCAUGGAAACUAGGAGCACCAUUUCGCUGCCGGUGAAGAAAUGAACAAAGAAAAUCUGGGCCUGGCAGGCAUCAAAAGAAAUAGUCUUGCGCUCAACCAGAAAGUCUGUAAUCAUUUUAAGGGUA, the self-cleavage was 0.14.

With GUUAACGGUCAUAGGCCAUGGAAACUAGGAGCACCAUUUCGCUGCCAGUGAAGAAAUGAGCAAAGAAAAUCUGGGUCAGGCAGGCAUCAAAAGAAAUAGUCUUGCGCUCAACCAGAAAGUCUGUAAUCAUUUUAAGGGUA, the self-cleavage was determined as 0.13.

Turning to GUUAACGGUCAUAGGCCAUGGAAACUAGGAGCACCAUUUCGCUGCCAGUGAAGUAAUGAACAAAGAAAAUCUGGGCCAGGCAGGCAUCAAAAGAAAUAGUCUUGCGCUCAACCAUAAAGUCUGUAAUCAUUUUAAGGGUA, the self-cleavage is 0.03.

In the case of GUUAACGGCCAUAGGCCAUGGAAACUAGGAGCACCAUUUCGCCGCCAGUGAAGAAAUGAACAAAGAAAAUCUGGGCCAGGCAGGCAUCAAAAGAAAUAGUCUUGCGCUCAACCAGAAAGUCUGUAAUCAUUUUAAGGGUA, the self-cleavage came out at 1.48.

Consider GUUAACGGUCAUAGGCCAUGGAAACUAGGAGCACCGUUUCGCUGCCAGUGAAGAAAUGAACAAAGAAAAUCUGGGCCAGGCAGGCAUCAAAAGAAAUAGUCUUGCGCUCCACCAGAAAGUCUGUAAUCAUUUUAAGGGUA, for which the self-cleavage was found to be 0.39.

Take GUAAACGGUCAUAGGCCAUGGAAACUAGGAGCACCAUUUCGCUGCCAGUGAAGAAAUGAUCAAAGAAAAUCUGGGCCAGGCAGGCAUCAAAAGAAAUAGUCUUGCGCUCAACCAGAAAGUCUGUAAUCAUUUUAAGGGUA: the self-cleavage stood at 1.71.

With GUUAACGGUCAUAGGCCAUGGAAACUAGGAGCACCAUUUCGCUGCCAGUGAAGAAAUGAACAAAGAAAAUCUGGGCCAGGCAGGCAUCAAAAGAAGUAGUUUUGCGCUCAACCAGAAAGUCUGUAAUCAUUUUAAGGGUA, the self-cleavage came to 0.4.

As for GUUAACGGUCAUAGGCCAUGGAAACUAGGAGCACCAUUUCGCUGCCAGUGAAGAAAUGAACAAAGAAAAUCUGGGCCAGGCAGGCAUCAAAAGAAAUAGUCUUGCGCACAACCAGAAAGUCCGUAAUCAUUUUAAGGGUA, the self-cleavage stood at 0.04.

As to GUUAACGGUCAUAGGCCAUGGAAACUAGGAGCACCAUUUCGCUGCCAGUGAAGAAAUGAACAGAGAAAAUCUGGGCCAGGCAGGCAUCAAAAGAAAUAGUCUUGCGCCCAACCAGAAAGUCUGUAAUCAUUUUAAGGGUA, the self-cleavage is 0.02.

Take GUUAACGGUCAUAGGCCAUGGAAACUAGGAGCACCAUUUCGCUGCCAGUGAAGAAAUGAACAAAGUAAAUCUGGGCCAGGCAGGCAUCAAAAGAAAUAGUCUUGCGCUCAACCAGAAAGUCUGUAAUCAUUUUAGGGGUA: the self-cleavage was determined as 1.83.

For GUUAACGGUCAUAGGCCAUGGAAACUAGGAGCACCAUUUCGCUGCCAGUGAAGAAAUGAUCAAAGAAAAUCUGGGCCAGGCAGGCAUCAAAAGAAAUAGUCUUGCGCUCAACCAGAAAGUCUGUAAUCAUUUUAAGGGUG, the self-cleavage was found to be 2.47.

Regarding GUUAACGGUCAUAGGCCAUGGAAACUAGGAGCACCAUUUCGCUGCCAGUGAAGAAAUGAACAAAGAAAAUCUGGGCCAGGCAGGCAUCGAAAGUAAUAGUCUUGCGCUCAACCAGAAAGUCUGUAAUCAUUUUAAGGGUA, the self-cleavage turned out to be 0.86.
